Publication PMC8330776 (Emerging Microbes & Infections, 2021)

Target: SARS-CoV-2 S trimer (SARS-CoV-2, UniProt P0DTC2)
Experiment: SPR
Details: both partners purified

B1: wheat germ agglutinin (natural protein)
chain: QRCGEQGSNMECPNNLCCSQYGYCGMGGDYCGKGCQNGACWTSKRCGSQAGGATCTNNQCCSQYGYCGFGAEYCGAGCQGGPCRADIKCGSQAGGKLCPNNLCCSQWGFCGLGSEFCGGGCQSGACSTDKPCGKDAGGRVCTNNYCCSKWGSCGIGPGYCGAGCQSGGCDG
B1 was tested, and the Kd was 1.5 nM, the koff was 0.00482 s⁻¹ and the kon was 3.21e+06 M⁻¹ s⁻¹.
